Test results from patent US20230094463.

Target: Human Galectin-3 protein (Acro Biosystems, GA3-H5129)
Test: blocking ELISA (Gal3 coated; antibody 3 µg/mL + INSR)

B1: 15G7.2A7 (protein)
chain 1: EVQLQQSGPELVKPGASVKISCKASGYTFTDYYMNWVKQSHGKSLEWIGDINPNNGGTNYNQKFKGKATLTVDKSSSTAYMELRSLTSEDSAVYYCTSGYGFPYWGQGTLVTVSA
chain 2: DIQMNQSPSSLSASLGDTISITCRASQNINIWLSWYQQKPGNIPQLLIYKASNLHTGVPSRFSGSGSGTDFTLTISSLQPEDIATYYCLQGQSYPLTFGAGTKLVMK
reduction of Gal3-INSR assembly (%): reduced assembly of Gal3 and INSR by greater than 99% at 3 µg/mL
